Source: publication PMC6468676, “The Protein Tyrosine Phosphatase H1 PTPH1 Supports Proliferation of Keratinocytes and is a Target of the Human Papillomavirus Type 8 E6 Oncogene” (Cells, 2019)

Target: T1, FLAG-tagged HPV8E6 (E6 oncoprotein of human papillomavirus type 8), wild type (human papillomavirus type 8, UniProt P06428 1-155)
T1 sequence: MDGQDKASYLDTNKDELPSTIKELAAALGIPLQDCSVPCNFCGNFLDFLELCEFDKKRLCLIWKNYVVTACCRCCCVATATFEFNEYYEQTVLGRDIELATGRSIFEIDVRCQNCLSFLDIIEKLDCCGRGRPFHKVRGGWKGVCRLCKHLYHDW
Assay: cell-based or functional assay

B1: Myc-tagged protein tyrosine phosphatase H1 (PTPH1), full length (enzyme, UniProt P26045 1-913, looked up)
chain: MTSRLRALGGRINNIRTSELPKEKTRSEVICSIHFLDGVVQTFKVTKQDTGQVLLDMVHNHLGVTEKEYFGLQHDDDSVDSPRWLEASKAIRKQLKGGFPCTLHFRVRFFIPDPNTLQQEQTRHLYFLQLKMDICEGRLTCPLNSAVVLASYAVQSHFGDYNSSIHHPGYLSDSHFIPDQNEDFLTKVESLHEQHSGLKQSEAESCYINIARTLDFYGVELHSGRDLHNLDLMIGIASAGVAVYRKYICTSFYPWVNILKISFKRKKFFIHQRQKQAESREHIVAFNMLNYRSCKNLWKSCVEHHTFFQAKKLLPQEKNVLSQYWTMGSRNTKKSVNNQYCKKVIGGMVWNPAMRRSLSVEHLETKSLPSRSPPITPNWRSPRLRHEIRKPRHSSADNLANEMTYITETEDVFYTYKGSLAPQDSDSEVSQNRSPHQESLSENNPAQSYLTQKSSSSVSPSSNAPGSCSPDGVDQQLLDDFHRVTKGGSTEDASQYYCDKNDNGDSYLVLIRITPDEDGKFGFNLKGGVDQKMPLVVSRINPESPADTCIPKLNEGDQIVLINGRDISEHTHDQVVMFIKASRESHSRELALVIRRRAVRSFADFKSEDELNQLFPEAIFPMCPEGGDTLEGSMAQLKKGLESGTVLIQFEQLYRKKPGLAITFAKLPQNLDKNRYKDVLPYDTTRVLLQGNEDYINASYVNMEIPAANLVNKYIATQGPLPHTCAQFWQVVWDQKLSLIVMLTTLTERGRTKCHQYWPDPPDVMNHGGFHIQCQSEDCTIAYVSREMLVTNTQTGEEHTVTHLQYVAWPDHGVPDDSSDFLEFVNYVRSLRVDSEPVLVHCSAGIGRTGVLVTMETAMCLTERNLPIYPLDIVRKMRDQRAMMVQTSSQYKFVCEAILRVYEEGLVQMLDPS
Myc-PTPH1 phosphatase activity (Malachite Green PTP assay on precipitated Myc-PTPH1, two phospho-tyrosine peptides) upon co-expression of HPV8E6 compared to the empty FLAG control vector: 2.5 fold
